Source: a protein production outcome set (Wang et al. 2014)

Test: label from the status in PepcDB records
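Note: failed if final PepcDB status was selected cloned or expressed and not failed if soluble or beyond.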

MSHEQPVTVSVARTILPGYTRQANAWAHAGQELAREWPGYLGSGWVRNGVDSAEWHMLYRFADADSLQEWEDSEERRWWIDSARDMMETTRVERHTGIEGWFSRPGDVSVVVPETVVPPRWKQAISIFLPFFPLSLLANFLLHPLTQDWQLVLSVLLNIVILTPLMTYIFLPITTRLLQPWLQAKPRKRPR
protein production: failed

MSHKISEYFANDPPSFFDELASKPKGNNLSTEGSSSSASSTSSAPNMMSNTFVGFFQPPEYVETPEAGEDSIKVGDDVRNLWELPRENEPGKLIMPGIHLQTDLADPISVAVTQHLGEAELSYRKILRVDDVTQDERGLRTLIHAGCYRTAVNLTGRLLTIYGQGYGRSGQPAKHSPHSLQLWFTRLALLAKLGEFELLNAEAEPFGQLTSPDVFYDFYPEMYNGKSGSIACFSFRLLLAELPIYLGKPHVALDRLSELHVTTREIKEHYLSLHNKAAEEFWQRRCERVLHSIINCGLMMKKFSMIDDIMEGTLLKRSNLSKEDRRSLYSAWGRIYLQIGDIFGAEQKIAVSRRLREINSAPDLRDLVDKGLIAVAKNDFPEAYVIFQKALHLDTGNTMILNNMGVCLLYAGKLKDAINLYERAINLNPQKSLNESLLVNLSTLYELESNNSKAKKYNLLRLINRYKPDLNISIEICLKLQTIN
protein production: failed

MSHPFEGLPTTPTAEELVDKAFSRASRAGGAKDGNEAQQSMLMTASNIASDNMENVVTAWPTIDDLDPFYVELADAVVGEAYPADDDPGIDALKQHLSEISWAADKVVEIRQEYESRVARGDIDTARKLRKQAFARIADVVEEVEDDLAAISTAHNALKDIPDIRPNEPAIVVAGYPNVGKSSFVNRVTRADNEIASYPFTTTQIRVGHFEDQRIRYQLVDTPGLLDRPPEDRNEIESQAVSALEHLADAVLVFIDPSGECGYPLADQLELRNAIEARFDVPVLTIANKSDLSTDVEADHYMSVTEDDNVDGVLQAAIDAVDYELELPFDE
protein production: failed

MSIDFYNQNASSFYASTVEVDSSSLLEQFTPYLPKGGSVLDAGCGSGRDSKRLIELGFHVDAFDASAALATLAQQLLGKPVRVATFMQFTSTLQYDGIWACASLLHVSKASLPDAFAHLASMLKSGGAFYCSFKYGQGEVERDGRSFTHCDEALLAELLTGSPLVIDKVWLTTDLRVGRENEQWLNAVLLKRLEHHHHHH
protein production: not failed

MSIESFNLLLLVMGLVALVVFIALYFVRAGYGMFRSRSWGISVNNKIAWILMEAPVFLVMGWLWWHSDRRFLPVELTFFLFFQLHYFQRAFVFPFLMKGKSKMPVLILLMGVIFNILNGLMQGEWIFYLAPSDYYTPGWLLTPCFWIGTLLFFAGMGINWHSDSVIRHLRAPGDTRHYLPQRGMYRYVTSANYLGEIVEWVGWAILTWSLSGCIFAWWTVANLVPRADAIWHRYREEFGTQVGLKKRIFPFLY
protein production: failed

MSIESSATPTTPNAEALQLNSTEVRILGCLIEKQATNPETYPLTLNALVIACNQKTSRDPVMNLTQGQVGQSLRALEGRGLTRLVMGSRADRWEHKVDKGLELVPAQVILTGLLLLRGPQTVSELLTRSNRMHDFEDSEQVVHQLERLIARGLATLVPRQSGQREDRYMHLIGDPEDLQD
protein production: not failed

MSIIDLTKLEQKVATMWDSILTNSPFIHEVLDGKATKALYAIYMTETYHYTKHNAKNQALVGIMGKDLPGKYLSFCFHHAHEEAGHELMALSDIASIGFDREDVLSSKPLPATETLIAYLYWISATGNPVQRLGYSYWAENVYGYIDPVLKAIQSTLDLTPQSMKFFIAHSKIDAKHAEEVNEMLHEVCKTQEDVDSVVAVMENSLVLTARILDDVWKEYQLFQSGASDRYAFLRDNA
protein production: not failed

MSIITRLFNNSDFEKLNQLCKLYDDLGYPTNENDLKKRLKKITNHDDYFLLLLIKENKIIGLSGMCKMMFYEKNAEYMRILAFVIHSEFRKKGYGKRLLADSEEFSKRLNCKAITLNSGNRNERLSAHKLYSDNGYV
protein production: failed

MSIKAGFDDRALARVEAAIRADVESGIYDGAVIKVARHGQIALDATIGFSNRRAGAAMREDAVFKVLSLTKAFTTTLVLEAIDLGLLSLTTRVVDVIPEFWGRDLFRSGRKERVNVGHLLTHRAGLSPTPQPLPYDQLHNFSETIQAICALDVVGEPGKAFNYSPTVNHALLGEMVRRVHGAASLAELMDQRLFSRLGMSSTSLGPTSQIRDRLVPLTSDFPEGGWLTNADIKAVADAIEAPNSQMPWVGAMTSAQDVFVFAEMLREQGTVRDERILSPAVVRKATTLQTGDAINDLYKLLADARHWDLPAGNMGLGFALGGDGLTVSQFGTLTSPGTFGNFGAGSTLFWVDPESQITFVCLTAKVMEESENILRFQRLSDLVASAAL
protein production: failed

MSIKIGLLGFGTVASGIPFLLKENGEKVFAASRDQLEIAKVLVKDDEEKDRLIAAGNDYNFVTNVDEILNDEEIQIVVELMGRIEPARTFITKALEAGKNVVSANKDLIATHGKELIALAQDKGVAFYYEAAVAGGIPILRTLANSLTSDKVTRILGVLNGTSNFMMTKMVDEGWSYEDALKTAQELGYAESDPTNDVEGYDAAYKAVILSQFGFGATIDFDDVSHKGITNISTDDVAVAQELGYVIKLVGDVREVESGISAEVSPTFLPKNHPLASVNDVMNAVFVESIGIGESMYYGPGAGQKPTATSVLADIIRIARRLSDGNVGKPFNEFRRDLPLANPADVKSNYYFALDTPDEKGKILHLSEIFNSEDISFEQVLQQKANGTTARIVVITHAMSKTQLKAVTEKLEAAEDFTVVNTLKVLSNLEHHHHHH
protein production: not failed

MSIKPKIMISSLDAERLEILLETLSQNAFPGRDDLEAELARAEVVDPEEIPPTVVTMNSTVRFRVESSAEEFCLTLVYPKDVDTSGEKISILAPVGSALLGLAQGDEIEWPKPGGGVLRVRIVEVTYQPERSGEYYR
protein production: not failed

MSIKVEDYFAPETFQRMKAFADKQETPFVVIDKQTIADAYDQLTDCFPFARIYYAVKANPATEITELLRDKGSNFDIASIYELDKVMKTGVGPERISYGNTIKKSKDIRYFYEKGVRLFATDSEADLRNIAKAAPGAKVYVRILTEGSTTADWPLSRKFGCQTDMAMDLLILARQLGLEPYGISFHVGSQQRDISVWDAAIAKVKVIFERLKEEDGIVLKMINMGGGFPANYITKTNDLETYAEEIIRFLKEDFGDDLPEIILEPGRSLIANAGILVSEVVLVARKSRTAVERWVYADVGKFSGLIETMDESIKFPIWTEKQGEMEEVVIAGPTCDSADIMYEHYKYGLPLNLASGDRLYWLSTGAYTTSYSAVEFNGFPPLKAFYL
protein production: failed

MSILLSKTLRELIFWMAWIIIPLIMEIIPAFGGFFILVKKSFNSNREGFIGTLPEITLIIPIYNSEATLKGCIESIYNCSYPTRLIDLILVNNMSSDDSFQVFSQCQKEFCGLSMRYMNSKQGKSKALNMALFNSAGKYIIHIDSDGKLHYDAIKNMIVRFEKNPNIHCMTGAILSDIEGIEKTHKRFLKLIRRCEFFEYAQAFLAGRNFESEINSIYTLSGAFSAFRKSTILKTQLYNSKTVCEDTHITFQVRRLLKKKVYLCENSIFFVDPIENLNKLYTQRQRWQRGEIEVSHMFFKNKMNSPLGFFHNFMIRVVMYDHTFAFPRMIWYFAIIFLFFMNYPVKLVVGSLVIIYMLYVLSTFLFYLNVRIYLKEYKSIREYYKARWGYIFLMPIYNFVVFWIRFAGIINSIKIKSKWKTLTLNDEWTAFLKVIQSDFRMIGKGINKIRRLVND
protein production: failed

MSILQGILDTYAQFFDLDMWIKVLQDPVSWGLIGTLVVLEGLLSADNALVLAVMVKHLPEEKRKKALFYGLIGAYVFRFIAIGIGMFLIKLAWVKVLGALYLAWLSVKYFIDKRKGNAEEEEAHGMNQNSILFRMFGVFWGTVAMVELMDIAFSVDSVLAAFGVSNEVWILLLGGMLGILMMRGIAGVFLKLLERIPELETTAYILILIIAAKMLLSVIHIEISHTVFFIILVVAFGATFILHYMKNSGQAKEEVAATKEDNK
protein production: failed

MSINSNSVFNNSGRVSAAGIASVVGLAVLSAVAVTGGAVKVLVISWVAFAAMALGAWLGARADETNPYRLVWGYGLASGAMVTSAAMFLVPQAMGLGGQAGAARIGGVGIAAGLVTGYGTHTIGHRLTHIETSFDMTTIAIAAHALSAGLVIGLVYASMPDLGILLGLAIVSHKGPAGYAAARRLGRSDKSATALLLPAAGVGLTAIPSALLPVPESALLNAVIFGFAAGIFLHVAMDFLPNCEAGSEIDEVCELHDHSHDLLDELRTHAVGSTVVGAAVIVLAWVAI
protein production: failed

MSIPKEQYNFNKLQKRLRRNVGQAIADFNMIEDGDKIMVCLSGGKDSYTLLSILMNLQKSAPIQFSLIAVNLDQKQPGFPEHILPEYLEQLGVEYKIVEENTYGIVKEIIPEGKTTCSLCSRLRRGILYRTATEVGATKIALGHHRDDILETLFLNMFYGGKLKGMPPKLMSDDGKHIVIRPLAYAREKDIERFAQAKNFPIIPCNLCGSQPNLQRQVIKEMLRDWDKRYPGRIETMFRATQNIVPSHLCDTQLFDFANIKQGDEIINGGDLAFDKDDIPTSPILSDDEDERPDFSQARLDVVEVK
protein production: not failed

MSIRSLGYLRIEATDMAAWREYGLKVLGMVEGKGAPEGALYLRMDDFPARLVVVPGEHDRLLEAGWECANAEGLQEIRNRLDLEGTPYKEATAAELADRRVDEMIRFADPSGNCLEVFHGTALEHRRVVSPYGHRFVTGEQGMGHVVLSTRDDAEALHFYRDVLGFRLRDSMRLPPQMVGRPADGPPAWLRFFGCNPRHHSLAFLPMPTSSGIVHLMVEVEQADDVGLCLDRALRRKVPMSATLGRHVNDLMLSFYMKTPGGFDIEFGCEGRQVDDRDWIARESTAVSLWGHDFTVGARG
protein production: not failed

MSISSKAKEILTQFTREVWSEGNIEASDKYIAPKYTVLHDPGDPWEGRELDVAGYKERVKTLRAAFPDQCFDIQGLFADGDAVVMTWLWTATHKEDIPGFPSTGKQIKMSGATVYYFDGNRLTGHWQITDRLGVYQQLRQAAAGA
protein production: not failed

MSISWSMSRNMFKLAHISDVHLGPLPRLSIQELFSKRITGFVNWHRNRRKHLFASTLDLLLDDIRTHRADHLAVTGDLVNLASGIEIRAAAAWLRALGDPADTSVVPGNHDAYVPGAYEKSMRAWYDYVRGDLAPPQWQEDRRIFPYLRVRDKVAIVGCSTAVATPPFAASGFFSARQARDTVNMLRAAGEAGLFRVVMIHHPPIRGATAFHKRMIGIRRFAAVISTGGAELVLHGHTHLNTLHWLRGQVQPVPVVGIASASQGPGSIKPPAAYNLFSIDGAPGAWELTGERFSLNRTGDAMMPESVDIFAPLEHHHHHH
protein production: failed

MSITQRKNGTYEVSISWYDSLGKRRTKSKRGFKTKPEAVLGEAKLRLEYEEVSVREKVDQQDTFAEYFKNWYIFYKKPKVSKVTLNRYQYTYNVINEYFGNKLLKDITRANYQKFIVKYGQNHSPNTMKMINNCIKACVKNAVYDEEIKKDFTYNIELISNRDNVVQVEYLNVAEIKALLNSTISKLNPRYTSNYMIVTAILTGARLSEIAGLTWNDINFNFNTININKSYDYFAKSFKPTKNKSSNRIIKINNTLCDVLKELRTNNTDLVFKNKRGLIPTSNAVNKALRARLEELNINRRNFHFHSLRHSHVAFLLSQGIDIYPIAQRLGHSDITTTTRTYAYLIEEYKDKNDAIIIAGLDKLSAEKAPTKVPAKSDI
protein production: failed

MSIVIMFKYVSDVSNIYHNIITSFIENKNIAIDATLGNGHDCDFLSELFKKVYAFDIQEEAVNSYKSKNKENVEVILDSHENFETYIKEENVDCIVYNLGYLPGNNKEVTTVAHSTLKSIEIGLDLLGDNGLMIIALYSGHEEGKKEKDAVLQFTSKLPKNKYGVLHTEFTNRAKSAPSLVVIEKKFK
protein production: failed
